The target of the test is T1, SAP-97 PDZ1-2-3 (human, UniProt Q12959 220-554).
T1 construct: human SAP-97, residues 220-554; Synthetic DNA in a modified pRSET vector; source: E. coli BL21(DE3)pLysS, purified (His-Trap IMAC, MonoQ ion exchange)
The test can be described thus: fluorescence polarisation; competition against the monomeric CRIPT probe; 50 mM TRIS, 100 mM NaCl, 1 mM EDTA, 1 mM DTT; Ki calculated according to Nikolovska-Coleska et al. The conditions noted are these: both partners purified.

T1 sequence (Q12959 220-554): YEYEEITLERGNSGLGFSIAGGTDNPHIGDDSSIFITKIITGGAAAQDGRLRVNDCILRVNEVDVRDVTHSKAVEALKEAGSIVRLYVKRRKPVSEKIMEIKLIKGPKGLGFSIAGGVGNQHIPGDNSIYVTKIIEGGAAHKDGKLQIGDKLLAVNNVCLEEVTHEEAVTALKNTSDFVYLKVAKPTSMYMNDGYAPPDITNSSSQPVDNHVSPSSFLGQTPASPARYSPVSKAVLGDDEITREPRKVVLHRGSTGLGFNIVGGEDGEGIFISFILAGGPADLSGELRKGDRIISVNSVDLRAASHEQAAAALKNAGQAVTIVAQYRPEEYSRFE

B1: CRIPT-06 (1) (peptide)
peptide: YKQTSV
notes: C-terminal hexapeptide of CRIPT; also called CRIPT hexapeptide; YKQTSV; source: synthetic peptide
What is called Ki is the equilibrium dissociation constant of an inhibitor or competing ligand from its target. As for B1, the Ki was 1000 nM.

(Values after article PMC4319893 (PLoS ONE, 2015).)
